B1: LdcIC chimera (LdcI with the C-terminal β-sheet of LdcC) (enzyme, E. coli, UniProt P0A9H3 1-630, looked up)
chain: MNVIAILNHMGVYFKEEPIRELHRALERLNFQIVYPNDRDDLLKLIENNARLCGVIFDWDKYNLELCEEISKMNENLPLYAFANTYSTLDVSLNDLRLQISFFEYALGAAEDIANKIKQTTDEYINTILPPLTKALFKYVREGKYTFCTPGHMGGTAFQKSPVGSLFYDFFGPNTMKSDISISVSELGSLLDHSGPHKEAEQYIARVFNADRSYMVTNGTSTANKIVGMYSAPAGSTILIDRNCHKSLTHLMMMSDVTPIYFRPTRNAYGILGGIPQSEFQHATIAKRVKETPNATWPVHAVITNSTYDGLLYNTDFIKKTLDVKSIHFDSAWVPYTNFSPIYEGKCGMSGGRVEGKVIYETQSTHKLLAAFSQASMIHVKGDVNEETFNEAYMMHTTTSPHYGIVASTETAAAMMKGNAGKRLINGSIERAIKFRKEIKRLRTESDGWFFDVWQPDHIDTTECWPLRSDSTWHGFKNIDNEHMYLDPIKVTLLTPGMEKDGTMSDFGIPASIVAKYLDEHGIVVEKTGPYNLLFLFSIGIDKTKALSLLRALTDFKRAFDLNLRVKNMLPSLYREDPEFYENMRIQELAQNIHKLIVHHNLPDLMYRAFEVLPTMVMTPYAAFQKELHGEVETIALEQLVGRINANMILPYPPGVPLVMPGEMITEESRPVLEFLQMLCEIGAHYPGFETDIHGAKQDEDGVYRVRVLKMAG
notes: E. coli LdcI up to the first exchanged stretch; E. coli LdcC, first strand region of the C-terminal β-sheet; E. coli LdcI between the two exchanged stretches; E. coli LdcC from 697 to the C-terminus, second strand region of the C-terminal β-sheet; Synthetic ldcIC gene of 2148 bp (GenScript) in the pET-TEV vector; source: E. coli Rosetta 2 (DE3), purified (Ni-NTA, TEV cleavage, second Ni-NTA, …)
B2: LdcCI chimera (LdcC with the C-terminal β-sheet of LdcI) (enzyme, E. coli, UniProt P52095 1-630, looked up)
chain: MNIIAIMGPHGVFYKDEPIKELESALVAQGFQIIWPQNSVDLLKFIEHNPRICGVIFDWDEYSLDLCSDINQLNEYLPLYAFINTHSTMDVSVQDMRMALWFFEYALGQAEDIAIRMRQYTDEYLDNITPPFTKALFTYVKERKYTFCTPGHMGGTAYQKSPVGCLFYDFFGGNTLKADVSISVTELGSLLDHTGPHLEAEEYIARTFGAEQSYIVTNGTSTSNKIVGMYAAPSGSTLLIDRNCHKSLAHLLMMNDVVPVWLKPTRNALGILGGIPRREFTRDSIEEKVAATTQAQWPVHAVITNSTYDGLLYNTDWIKQTLDVPSIHFDSAWVPYTHFHPIYQGKSGMSGERVAGKVIFETQSTHKMLAALSQASLIHIKGEYDEEAFNEAFMMHTTTSPSYPIVASVETAAAMLRGNPGKRLINRSVERALHFRKEVQRLREESDGWFFDIWQPPQVDEAECWPVAPGEQWHGFNDADADHMFLDPVKVTILTPGMDEQGNMSEEGIPAALVAKFLDERGIVVEKTGPYNLLFLFSIGIDKTKAMGLLRGLTEFKRSYDLNLRIKNMLPDLYAEDPDFYRNMRIQDLAQGIHKLIRKHDLPGLMLRAFDTLPEMIMTPHQAWQRQIKGMTEEVYLDEMVGRVSANMILPYPPGVPLLMPGEMLTKESRTVLDFLLMLCSVGQHYPGFETDIHGAYRQADGRYTVKVLKEESKK
notes: E. coli LdcC up to the first exchanged stretch; E. coli LdcI, first strand region of the C-terminal β-sheet; E. coli LdcC between the two exchanged stretches; E. coli LdcI from 697 to the C-terminus, second strand region of the C-terminal β-sheet; Synthetic ldcCI gene of 2154 bp (GenScript) in the pET-TEV vector; source: E. coli Rosetta 2 (DE3), purified (Ni-NTA, TEV cleavage, second Ni-NTA, …)
B3: Escherichia coli inducible lysine decarboxylase LdcI (enzyme, E. coli)
chain: MNVIAILNHMGVYFKEEPIRELHRALERLNFQIVYPNDRDDLLKLIENNARLCGVIFDWDKYNLELCEEISKMNENLPLYAFANTYSTLDVSLNDLRLQISFFEYALGAAEDIANKIKQTTDEYINTILPPLTKALFKYVREGKYTFCTPGHMGGTAFQKSPVGSLFYDFFGPNTMKSDISISVSELGSLLDHSGPHKEAEQYIARVFNADRSYMVTNGTSTANKIVGMYSAPAGSTILIDRNCHKSLTHLMMMSDVTPIYFRPTRNAYGILGGIPQSEFQHATIAKRVKETPNATWPVHAVITNSTYDGLLYNTDFIKKTLDVKSIHFDSAWVPYTNFSPIYEGKCGMSGGRVEGKVIYETQSTHKLLAAFSQASMIHVKGDVNEETFNEAYMMHTTTSPHYGIVASTETAAAMMKGNAGKRLINGSIERAIKFRKEIKRLRTESDGWFFDVWQPDHIDTTECWPLRSDSTWHGFKNIDNEHMYLDPIKVTLLTPGMEKDGTMSDFGIPASIVAKYLDEHGIVVEKTGPYNLLFLFSIGIDKTKALSLLRALTDFKRAFDLNLRVKNMLPSLYREDPEFYENMRIQELAQNIHKLIVHHNLPDLMYRAFEVLPTMVMTPYAAFQKELHGMTEEVYLDEMVGRINANMILPYPPGVPLVMPGEMITEESRPVLEFLQMLCEIGAHYPGFETDIHGAYRQADGRYTVKVLKEESKK
notes: LdcI (CadA), inducible lysine decarboxylase of E. coli; wing domain 1-129, core domain 130-563, CTD 564-715; Decamer of two pentameric rings; The whole enzyme (715 residues) is likely; PLP cofactor was in the buffers; also called CadA; LdcIa (at pH 6.2); copies: 10
B4: Escherichia coli AAA+ ATPase RavA (enzyme)
chain: not shown
notes: RavA, AAA+ ATPase of E. coli; It was mixed in the presence of 2 mM ADP and 10 mM MgCl2
B5: Escherichia coli biosynthetic lysine decarboxylase LdcC (enzyme, E. coli)
chain: MNIIAIMGPHGVFYKDEPIKELESALVAQGFQIIWPQNSVDLLKFIEHNPRICGVIFDWDEYSLDLCSDINQLNEYLPLYAFINTHSTMDVSVQDMRMALWFFEYALGQAEDIAIRMRQYTDEYLDNITPPFTKALFTYVKERKYTFCTPGHMGGTAYQKSPVGCLFYDFFGGNTLKADVSISVTELGSLLDHTGPHLEAEEYIARTFGAEQSYIVTNGTSTSNKIVGMYAAPSGSTLLIDRNCHKSLAHLLMMNDVVPVWLKPTRNALGILGGIPRREFTRDSIEEKVAATTQAQWPVHAVITNSTYDGLLYNTDWIKQTLDVPSIHFDSAWVPYTHFHPIYQGKSGMSGERVAGKVIFETQSTHKMLAALSQASLIHIKGEYDEEAFNEAFMMHTTTSPSYPIVASVETAAAMLRGNPGKRLINRSVERALHFRKEVQRLREESDGWFFDIWQPPQVDEAECWPVAPGEQWHGFNDADADHMFLDPVKVTILTPGMDEQGNMSEEGIPAALVAKFLDERGIVVEKTGPYNLLFLFSIGIDKTKAMGLLRGLTEFKRSYDLNLRIKNMLPDLYAEDPDFYRNMRIQDLAQGIHKLIRKHDLPGLMLRAFDTLPEMIMTPHQAWQRQIKGEVETIALEQLVGRVSANMILPYPPGVPLLMPGEMLTKESRTVLDFLLMLCSVGQHYPGFETDIHGAKQDEDGVYRVRVLK
notes: LdcC, biosynthetic lysine decarboxylase of E. coli; Decamer; PLP cofactor was in the buffers; also called constitutive lysine decarboxylase; copies: 10

Assays:
[1] = target: the molecule itself; assay: not stated; purified chimeras alone; decamers 'visually indistinguishable from the wild-type proteins'
[2] = target: B4; assay: negative stain EM; 0.4 mg/ml RavA mixed with 0.3 mg/ml LdcI, LdcC, LdcCI or LdcIC; 2 mM ADP, 10 mM MgCl2, 20 mM Hepes, 150 mM NaCl, pH 7.4; 10 min at room temperature; 2% uranyl acetate; details: both partners purified
[3] = target: the molecule itself; assay: cryo-EM structure; LdcI alone, 2 mg/ml, 25 mM MES, 100 mM NaCl, 0.2 mM PLP, 1 mM DTT, pH 6.2; no ppGpp
[4] = target: B3; assay: negative stain EM; 0.4 mg/ml RavA mixed with 0.3 mg/ml LdcI, LdcC, LdcCI or LdcIC; 2 mM ADP, 10 mM MgCl2, 20 mM Hepes, 150 mM NaCl, pH 7.4; 10 min at room temperature; 2% uranyl acetate; details: both partners purified
[5] = target: the molecule itself; assay: cryo-EM structure; LdcC alone, 2 mg/ml, 25 mM HEPES, 100 mM NaCl, 0.2 mM PLP, 1 mM DTT, pH 7.2 (results say pH 7.5); no ppGpp

B1
stoichiometry N [1]: 10

B2
stoichiometry N [1]: 10 | binding result [2]: binds

B3
stoichiometry N [3]: 10

B4
binding result [4]: binds

B5
stoichiometry N [5]: 10

Source: article PMC4832331, “Structural insights into the Escherichia coli lysine decarboxylases and molecular determinants of interaction with the AAA+ ATPase RavA” (Scientific Reports, 2016)
